Data taken from US20260265368A1 (CARSGEN LIFE SCIENCES, published 2026).
Numbering of substitutions follows the chain as printed. One block for each binder: values may come before it.

Assays:
[1] = target: T1, Human CLDN6 (on 293T-CLDN6 cells) (human, UniProt P56747 1-220); assay: flow cytometry on 293T-CLDN6 cells
T1 construct: In the killing assay it was also endogenous on OVCAR3 and OV90 cells; also called Claudin 6
T1 sequence: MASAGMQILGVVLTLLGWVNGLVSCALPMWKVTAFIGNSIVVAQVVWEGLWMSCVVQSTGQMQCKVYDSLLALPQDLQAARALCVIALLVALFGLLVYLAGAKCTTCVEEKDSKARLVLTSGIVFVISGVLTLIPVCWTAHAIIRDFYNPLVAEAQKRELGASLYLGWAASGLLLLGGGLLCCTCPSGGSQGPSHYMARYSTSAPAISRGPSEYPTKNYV

[2] = target: T2, Human CLDN4 (on 293T-CLDN4 cells) (human, UniProt O14493 1-209); assay: flow cytometry (MFI) on 293T-CLDN4 cells
T2 construct: also called Claudin 4
T2 sequence: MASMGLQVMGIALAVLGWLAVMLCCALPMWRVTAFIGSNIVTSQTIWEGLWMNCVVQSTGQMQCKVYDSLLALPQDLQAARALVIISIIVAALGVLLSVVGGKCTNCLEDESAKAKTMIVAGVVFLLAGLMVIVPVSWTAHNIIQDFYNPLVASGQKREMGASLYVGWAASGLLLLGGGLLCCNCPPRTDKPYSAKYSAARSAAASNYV
Protocol: (§1) The heavy chain variable region of antibody P1 from Example 3 was combined with the light chain variable regions of antibodies P2 and P3 by using molecular cloning, respectively, so as to obtain antibodies M1 and M2. After being prokaryotically expressed and puried, purified single chain antibodies (scFv) were obtained. […] Data were analyzed using FlowJo to calculate mean fluorescence intensity (MFI).

[3] = target: T1, Human CLDN6 (on 293T-CLDN6 cells); assay: flow cytometry EC50 on 293T-CLDN6 cells, against antibody H1
Protocol: as §1

[4] = target: T3, Human CLDN9 (on 293T-CLDN9 cells) (human, UniProt O95484 1-217); assay: flow cytometry (MFI) on 293T-CLDN9 cells
T3 construct: also called Claudin 9
T3 sequence: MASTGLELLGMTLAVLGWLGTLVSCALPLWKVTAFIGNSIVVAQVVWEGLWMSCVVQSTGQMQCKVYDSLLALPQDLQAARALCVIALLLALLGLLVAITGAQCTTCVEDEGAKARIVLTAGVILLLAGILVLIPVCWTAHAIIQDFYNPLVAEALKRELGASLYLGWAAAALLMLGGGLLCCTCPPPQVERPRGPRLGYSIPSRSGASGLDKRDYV
Protocol: as §1

[5] = target: T3, Human CLDN9 (on 293T-CLDN9 cells); assay: flow cytometry on 293T-CLDN9 cells
Protocol: (§2) After centrifugation, the supernatant was discarded, and the cells were washed with PBS and incubated with Goat-anti-Mouse FITC at 4° C. After centrifugation, the supernatant was discarded, and the cells were washed and detected by flow cytometry. FlowJo v.X.0.7 was used for statistics and GraphPad Prism 8.0 was used for plotting.

[6] = target: T2, Human CLDN4 (on 293T-CLDN4 cells); assay: flow cytometry on 293T-CLDN4 cells
Protocol: as §2

B1: antibody M1 (scFv) (scFv, V domains shown)
VH: EVQLVQSGAEVKKPGASVKVSCKASGYTFTGYYMNWVRQAPGQGLEWMGEINPATGSTTYNQKFKARVTITRDTSTSTAYMELSSLRSEDTAVYYCARRDYYLGSNSYALDYWGQGTLVTVSS
VL: DIQMTQSPSSLSASVGDRVTITCQASQSVSNNLNWYQQKPGKAPKLLIYGASKLEDGVPSRFSGSGSGTDFTFTISSLQPEDFATYYCLQHRYMWTFGQGTKVEIK
notes: Tested as a prokaryotically expressed single chain antibody (scFv)
EC50 [1]: 23 nM
binding result [2]: no binding (tested: 5 µg/mL)
fold improvement in affinity compared with antibody H1 [3]: ~20 fold
binding result [4]: no binding (tested: 5 µg/mL)

B3: Antibody P2 (scFv) (scFv)
scFv: EVQLVQSGAEVKKPGASVKVSCKASGYTFTGYYMNWVRQAPGQGLEWMGEINPATGSTTYNQKFKARVTITRDTSTSTAYMELSSLRSEDTAVYYCARRDYYYGSGFYAMDYWGQGTLVTVSSGGGGSGGGGSGGGGSDIQMTQSPSSLSASVGDRVTITCQASQSVSNNLNWYQQKPGKAPKLLIYGASKLEDGVPSRFSGSGSGTDFTFTISSLQPEDFATYYCLQHRYMWTFGQGTKVEIK
notes: Prokaryotically expressed single chain antibody
EC50 [1]: 144 nM

B7: Antibody P3 (scFv) (scFv)
scFv: B3 scFv with L227Q, Y231F
notes: as for B3
EC50 [1]: 555 nM

Continued by falling EC50 [1], values first:

binding result [5]: no binding (tested: 10 µg/mL)
EC50 [1]: 475 nM
binding result [6]: no binding (tested: 10 µg/mL)
B4: humanized antibody H1 (scFv-huFc) (Fc fusion)
scFv: B3 scFv with M232L
notes: Tested as scFv-huFc; not shown: human Fc (huFc)

EC50 [1]: 183 nM
B5: Antibody P4 (scFv) (scFv)
scFv: B3 scFv with L227Q
notes: as for B3

EC50 [1]: 62.7 nM
B6: Antibody P1 (scFv) (scFv)
scFv: B3 scFv with Y103L, G106N, F107S, M110L, M232L
notes: as for B3

EC50 [1]: 24.7 nM
binding result [2]: no binding (tested: 5 µg/mL)
fold improvement in affinity compared with antibody H1 [3]: ~20 fold
binding result [4]: no binding (tested: 5 µg/mL)
B2: antibody M2 (scFv) (scFv, V domains shown)
VH: B1 VH
VL: B1 VL with L89Q, Y93F
notes: as for B1
